According to the DeepSol protein solubility set:

test: soluble on expression in E. coli; label from the status in PepcDB or PDB records

| Sequence | soluble on expression in E. coli |
| --- | --- |
| GHMSESREARLIIFHAGSLSIPLSQVEEKFTKYAQEKLGVKVTFQDEASGSVKAVRKVTDLKKRADIVAVADYTLIPQLMIPNYTDFYVLFATNEIVIAFTNKSKYADEMLKNPDKWYEILSRPDVSFGFSDPNQDPCGYRSVMVMKLAELYYGRPIFKELVEKTTNIYSNGTRIYAPKEIIIKDKRVIMRPKETDLVGLVESGSLDYIFIYKSVAKQHHLSYITLPDDINLGDFNKADFYGRVSITLGSTGKTIKAKPIVYGITVLKNAPNRELAIEFLRFLLGNEGRKIFEDNYQEFLSPPVAFGNVPPEIRRLVEVK | soluble |
| MNEFEKLLEESIASPEEFKRGQVVKGRVVKVAGDTVFVDIGYKTEAVISKEEVPEVQEGQEIEAVLVRFSPRIPNPVLSVKPLQEKKELEKLKEAYLNKSDVVGKIEKKVKGGFIVDFEGVKAFLPMSQAGKKLKEGQVLTFKVLDFKLDSKRPQIIVSHKAYLDEQREKRKQELLNTLKPGDVVEGKVVKIDPNKGVTLVIEGVLRAFLPKEELSWGRDKNPYNYTDVGETLKVKVKRVDKQKGFIIVSLRELKGNPWEKFLKEHKEGDVIEGRVVAVTPKGVVVEVMEGVEGFVPEEELAWEGKPEFKKGDLVKAKIMKIDPKRRRLILSIKRAQPRPWEIFLQKHPVGSKVKGKVIKIEGSRAIVELEDGVKGVIHRSDLSWTRPKRVEEVLKEGEEREFAVLGLEGKYVKLGLKQLTENPWEKVKEKYKVGDVVKLPVKELAPFGAFLEFPEGVEGLLPFSEVPRHIRIRKGQEYEVKIIDINPKEGKITFSINALYGEKPEEKEEKVEEVTTATTGGFKLGEILKKRWKL | not soluble |
| LQFAYKDPEKNWNRNSVKGLVASLINVKDNSTATALEVVAGERLYNVVVDTEVTAKKLLEKGELKRRYTIIPLNKISARCIAPETLRVAQNLVGPDNVHVALSLVDYKPELQKGMEFVFGTTFVCNNMDNAKKVAFDKRIMTRTVTLGGDVFDPHGTLSGG | soluble |
| MSLARSRARVETIAELERTNAALQQALDENAALHAQLLVQAREAGVADERRRLAAEIHDTLAQGLTGIIAQLQVVAAAPDPALGREHLDRALALARHSLGEARRSVHNLSPVALAEDGLPDALKKTVTEWGARTGVQARFTVTGTAEHLHDEVAATLLRIAQEALSNTARHAAADRVGVTLSYMGDEVTLDIRDDGRGFDPLTARECGPGGGFGLDGMRARAERIAGSLTVEAEPGHGTAVSARVPLVRHDREGHHHHHH | soluble |
| MSEGLSFVIQRHQARRLHYDFRLEIDGVLVSWAVPKGPSRDPSVKRLAVHVEDHPLEYGGFSGDIPKGQYGAGHVDIWDSGVWIPRGDPRQGLRRGKLHFALRGRRLAGDWVLVRMSGEQDQWLLRKEDDEALEHHHHHH | not soluble |
| MTEEKPKIGRPPVLSCAERTCQILRAAEQVFVCHGYSGTTMDRIACAAGMSKRTLYQHFPDKLAVLQGILRAYDAGPLMESLTDPDPPGSAREILHRSLVEILRFLLCPAQVALTRLAVSEATAAPEVARLFYDNAMGGLSAAFTRRIAGLAAQGRIRCSDADWLGSSLVGCALNRQLLRRLTHPEAGPPDVAELERRVSALLDLVGPSLGFAD | not soluble |
| MAHHHHHHMKNTVVRIKAELENVKRLFCDDEYLWIFNIRDSTSSLTRDNIQFRKTDILEIPNSRGTANFMIKWTEYPKYSTINFVNTKNSCSYEEVNNNEWRDFASFECRGIELIDFFPSNNFIVEDTKGKLYYDVNLSDQNWCDYNEEHEMCVGIYNLEYEVN | soluble |
| MPEDILVDIKRDYVLSKLRDNERIDGRGFDEFRKVEIIPNVIEKAEGSALVKLGDTQVVVGVKMQPGEPYPDTPDRGVIIVNAELVPLASPTFEPGPPDENSIELARVVDRGIRESEAVDLSKLVIEEGEKVWIVFVDIHALDDDGNLLDASALAAIAALMNTKVPAERFDLGEDYLLPVRDLPVSVTSLIVGNKYLVDPSREEMSVGDTTLTITTDKDDNVVAMQKSGGYLLDEKLFDELLDVSINCARKLREKFKEI | soluble |
| MFIAGYIEKPERGKDIILTEKGRISNEKFFPTLEEKRLIDQYWKNKSELRKARKKANSIIDDSTSTKAVEIDENSGDSDWKTELIDQLKKFSPGKFESFSRLLISKMGVRIDNQRGIIRSGDHSIDGFGYFQSDEFRTSRVAIQAKRFTNGSVGEPEIDKFKGVMDSFNAEYGIFITTSYFTDQAKEKAVVGNNSVTLIDGIKLASLVQKYQLRV | not soluble |
| MKCKKCGRKAVANLKAYGIALCEKCYPEFYRNLVKRSIKRFRILRPEERVLIAISGGKDSSALAAVLKELDYDAELLYIDLGIGNYSEESERVVRELSSSLDLSLNVVRLRDYGFTVDDVARKMRRKTCSACGTAKRYIMNRFARENSFDVVATGHTAEDIASFYIKNVAGGTRVWAEKLMPRNEPFDEKIVTRAKPLFEVSEKENMLYVLVNDIPHTLMECPHAPNPEWKEIVYDIERRKPGFVKNFVRGLVRPAEEFEETKYCKICGEVSSGDVCAFCRLRERLS | not soluble |
| MKQQEVRQRAFAMPLTSPAFPPGPYRFVNREYMIITYRTDPAAIEAVLPEPLQMAEPVVRYEFIRMPDSTGFGDYSESGQVIPVTFRGERGSYTLAMFLDDQPPLAGGRELWGFPKKAGKPRLEVHQDTLVGSLDFGPVRIATGTMGYKYEALDRSALLASLAEPNFLLKIIPHVDGSPRICELVRYHTTDVAIKGAWSAPGSLELHPHALAPVAALPVLEVLSARHFVCDLTLDLGTVVFDYLRQ | soluble |
| MYLDFYGLHAHPFQLTPDPAFFFGANGHTRAKSYLMFGLSQGEGFVVVTGDVGAGKTTLLSHMLRSLSDRSIRVARLSTTQLSADDTARVVARAFGLAEPAHPSKGAWLEAIEVFLTQVRAAGERCVLIVDEVQNMGFAALEELRMLGNLGIDDGHSALQTILVGQPQFRNTLAGPSLDQLRQRIVASCHLGPIEPEEVGHYMRYRLTQAGWRGDPSFEEAVFPAVYRHSGGLPRRINILCSRLLLAGFLQERHDLRAQDVEEVAAELEAEAGEVIGVAGETRAGARLDGRFIDAGSLADLEERVLGIEERLRKVDLVVRRGLLNFSDFVSELNAVWKGRPLEHHHHHH | not soluble |
| MGSDKIHHHHHHMPVKLAQALANPLFPALDSALRSGRHIGLDELDNHAFLMDFQEYLEEFYARYNVELIRAPEGFFYLRPRSTTLIPRSVLSELDMMVGKILCYLYLSPERLANEGIFTQQELYDELLTLADEAKLLKLVNNRSTGSDVDRQKLQEKVRSSLNRLRRLGMVWFMGHDSSKFRITESVFRFGADVRAGDDPREAQRRLIRDGEAMPIENHLQLNDETEENQPDSGEEE | not soluble |
| PQMKTLETRSCILRPASLDDVEDFFDCYKNKIVVKHLPFSEHKSLEDTRKFIKSFFLNPYKKGKIGHFAIVYKRDNKVIGNMGFNNINPKALEAEIGICINPSYWGHDFATEITKRVIQYGFRELNLNKIIAITYEENQNSTKSLDLLGFKCTGKYIKKIHTGNTVKNVPCYQYELKKQ | not soluble |
| MAHIVIVGAGLGGLPTAYELRHILPKQHQVTVISETPYFTFIPSLPWVAMGLTSLESIQVSLQQRLKQKGINWILGRVDYLNPQNQKISLGEQSISYDYLIIATGAELALDAVAGLGPDGYTQSVCNPHHAIKAFQAWQNFLLAPGPLVVGALPKTSCLGPAYEFTLLADYVLRKQGLREQVSITFVTPEPYAGHLGIGGMANSAELVTKFMAERGVEVIENVAVTAIEANQIHLGNGRVLPFAYSMLLPPFRGPRFVRQVPGLSNQDGFIPVLPTYRHPEYASIYAVGVVVEIKPSEVTPLPLGVPKTGQMTEAMGMAVAHNIAIELGVFSAPPVTPTLDAICFADFGNSGILFLANPVLPDLATGKRRRAVALSGAWVTWAKAAFERYFLAKMRFGTAVPWFEKLALKLLGLSLVAPLAVKSSRNISQENYLEHHHHHH | not soluble |
| MVAIFDICAYFNNSILVIVDIIMTELLEPAARASTQETLTDQIFKKIQSAIVSGEIAAGSKISEPELARVYGISRGPLREAIHRLEGQKLVERTAHVGARVVSLSHQQLRELYQIRENLEGLACRLAAQSIDKQQILNLRDVLHLHAQDPDFKEGKGYYLQEGQDDFHYCIIKNCGNKTLEKMLCDELYHLIRMYRVQYSKTPNRPHRALSEHLHILNAIAEGDTELAELLMRRHIAASYRNIEQHFI | not soluble |
| MSLETKTPNDAKNQVQTHERMKTSSEHVTPLDFNYPIHIVQAPQNHHVVGILTPRIQVSDNLKPYIDKFQDALINQIQTIFEKRGYQVLRFQDEKALNAQDKRKIFSVLDLKGWVGILEDLKMNLKDPNNPNLDTLVDQSSGSVWFNFYEPESNRVVHDFAVEVGTFQAMTYTYKHNNSGGLNSSNSIIHEYLEKNKEDAIHKILNRMYAVVMKKAVTELTKENIDKYREAIDRMKGFKSSMPQKKEGHHHHHH | soluble |
| GPGSMFILADQLALPLPRSPLFFDVFDFSLEHTAMSQEAGCDTKGGGSTVTSVTAGTSGKHEETPVVTEDSSFVYACRLCRRILFTHEEIMPHSADSSSKGPKAFGRRGAPKQQSDQQNAGVCTSYFLNPDVSIWVAAESREAHCESGGTSVLPDTVYCPNNSCSAKIGTQSWVGSQCSCGVWVTPAFKIHGRAVDKLQSQ | not soluble |
| GPGSMDSSAGALPATAHSSSNGAASIENVFAGLAWVRDLTDASLAAERVHNAFMQVVFSFVPEYDQDDDDDSATHRFVTAAERQKEAERDRRLREEARRELENLRNEPLSDAGDSGQRSDDEEDQRSEEANLADFETNEFMHWIEAGASDRFAAPRHEIDEKGLRDDPRVQVGADGAWQDYGVRSECNMSGATQGGARGAASAPRW | soluble |
| MAHHHHHHSLNTNLKPKLQRFASATAFACPICQENLTLLETNFKCCNRHSFDLAKFGYVNLAPQIKQSANYDKENFQNRQQILEAGFYQAILDAVSDLLASSKTTTTILDIGCGEGFYSRKLQESHSEKTFYAFDISKDSVQIAAKSEPNWAVNWFVGDLARLPIKDASMDILLDIFSPANYGEFRRVLSKDGILIKVIPTENHLKEIRQRVQDQLTNKEYSNQDIKEHFQEHFTILSSQTASLTKTITAEQLQALLSMTPLLFHVDQSKIDWSQLTEITIEAEILVGKAFEG | soluble |
| MSLRRSLLLVDDDADHLAVLRCTLESCGFDVSLAPDGAAALALAHARAFDAVVLDIAMPGLSGWEVAERLRAAHGQSFRLVMLSANAEERHGPRGKEPDHDLFLMKPVELSALVDSLGKLLGLEWILSEGGGDTVLAQPRIDVSDSARTHVDRLKSLARIGHLRGLEAEIRSMQETDTGTAPLAARLFDCLDRCDLVAMRRVLEGIEGHHHHHH | not soluble |
| MAEGERQPPPDSSEEAPPATQNFIIPKKEIHTVPDMGKWKRSQAYADYIGFILTLNEGVKGKKLTFEYRVSEAIEKLVALLNTLDRWIDETPPVDQPSRFGNKAYRTWYAKLDEEAENLVATVVPTHLAAAVPEVAVYLKESVGNSTRIDYGTGHEAAFAAFLCCLCKIGVLRVDDQIAIVFKVFNRYLEVMRKLQKTYRMEPAGSQGVWGLDDFQFLPFIWGSSQLIDHPYLEPRHFVDEKAVNENHKDYMFLECILFITEMKTGPFAEHSNQLWNISAVPSWSKVNQGLIRMYKAECLEKFPVIQHFKFGSLLPIHPVTSG | soluble |
| MNDVPHRPQVKTRKALTPLLEIRNLTKSFDGQHAVDDVSLTIYKGEIFALLGASGCGKSTLLRMLAGFEPPSSGQIMLDGVDLAHVPPYQRPINMMFQSYALFPHMTVEQNIAFGLKQDKLPKAEITSRVNEMLGLVHMQEFAKRKPHQLSGGQRQRVALARSLAKRPKLLLLDEPMGALDKKLRDRMQLEVVDILERVGVTCVMVTHDQEEAMTMAGRIAIMNRGKFVQIGEPEEIYEHPTTRYSAEFIGSVNVFEGLLKAREEDGLVIDAPGLVHPLKVDADASVVDNVPVYVALRPEKIMLCESPPADGYNFAVGEVAHIAYLGDLSIYHVRLKSGQMISAQLQNAHRYRKGLPTWGDEVRLCWEADSCVVLTV | not soluble |
